According to the supplement of paper PMC6755084:

B1: minF1; a variant is named by its letters at N, in order (parent)
chain: GAGACCGCAACTGAAAAGTTGTTNNNNAANNNNGGNTNNATTTCTGCACGTAGAAGCAAAAGGC

Variants of: B1
Test: fraction ligated after 30 min (ligated reads / total reads); higher = more ligase activity
Settings: with F1*subA RNA substrate (template-directed ligation), 42 °C
Method: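 Chip-synthesised pool of minF1 ligase ribozyme variants (single and double substitutions, single to quadruple deletions, bulge and P2 designed variants) was transcribed with T7 and reacted as a pool with excess substrate F1*subA for 30 min at 42 C in 50 mM EPPS pH 8.5, 25 mM MgCl2. Ligated and unligated RNAs were separated by PAGE, barcoded by RT and deep sequenced; fraction ligated = ligated reads / total reads, relative activity = FL / FL of wild-type minF1 (0.76); sequencing FL correlated with PAGE (R2 = 0.98). Sequences are the DNA template of the ribozyme.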

Row | Variant | fraction ligated
1 | GAGACCGCAACTGAAAAGTTGTACAGAAATGGAGGGTTGATTTCTGCACGTAGAAGCAAAAGGC [CAGATGGAGTG T23A] | 0.00354
2 | GAGACCGCAACTGAAAAGTTGTACAGAAATGGATGGGTTATTTCTGCACGTAGAAGCAAAAGGC [CAGATGGAGTT T23A G34T T37G] | 0.00071
3 | GAGACCGCAACTGAAAAGTTGTACAGAAATGGTGGTTGAATTTCTGCACGTAGAAGCAAAAGGC [CAGATGGTTGA T23A] | 0.00385
4 | GAGACCGCAACTGAAAAGTTGTATCAAATGGATGGGTTGATTTCTGCACGTAGAAGCAAAAGGC [TCAAGGATGTG T23A A29T] | 0.0062
5 | GAGACCGCAACTGAAAAGTTGTTTAGAAATGGATGGGTTGTTTCTGCACGTAGAAGCAAAAGGC [TAGATGGAGTT G34T T37G A40G] | 0.00199
6 | GAGACCGCAACTGAAAAGTTGTTTCAAATGGAGGGTTGAATTTCTGCACGTAGAAGCAAAAGGC [TCAAGGAGTGA A29T] | 0.00143
7 | GAGACCGCAACTGAAAAGTTGTTTCAATGGATGGGTTGAATTTCTGCACGTAGAAGCAAAAGGC [TCAAGATGTGA A28T A29G] | 0.00257
8 | GAGACCGCAACTGAAAAGTTGTATAGAAATGGGGGTTGAATTTCTGCACGTAGAAGCAAAAGGC [TAGATGGGTGA T23A] | 0.000824
9 | GAGACCGCAACTGAAAAGTTGTATCAAATGGAGGGTTGAATTTCTGCACGTAGAAGCAAAAGGC [TCAAGGAGTGA T23A A29T] | 0.00288
10 | GAGACCGCAACTGAAAAGTTGTTTAGAAATGGGGGTTGAATTTCTGCACGTAGAAGCAAAAGGC [TAGATGGGTGA] | 0.00433
11 | GAGACCGCAACTGAAAAGTTGTTACAAAGGATGGGTTGAATTTCTGCACGTAGAAGCAAAAGGC [ACAAGATGTGA A29G] | 0.0031
12 | GAGACCGCAACTGAAAAGTTGTTACAAATGATGGGTTGAATTTCTGCACGTAGAAGCAAAAGGC [ACAAGATGTGA A29T] | 0.0029
13 | GAGACCGCAACTGAAAAGTTGTATAGAAATGGATGGGTTATTTCTGCACGTAGAAGCAAAAGGC [TAGATGGAGTT T23A G34T T37G] | 0.000868
14 | GAGACCGCAACTGAAAAGTTGTTTCAAAAGGATGGTTGAATTTCTGCACGTAGAAGCAAAAGGC [TCAAGGATTGA] | 0.00222
15 | GAGACCGCAACTGAAAAGTTGTTTCAAAAGGTGGGTTGAATTTCTGCACGTAGAAGCAAAAGGC [TCAAGGTGTGA] | 0.00226
16 | GAGACCGCAACTGAAAAGTTGTTCAGAAATGGATGGGTTGTTTCTGCACGTAGAAGCAAAAGGC [CAGATGGAGTT G34T T37G A40G] | 0.000312
17 | GAGACCGCAACTGAAAAGTTGTTAAGAAATGGATGGTTGATTTCTGCACGTAGAAGCAAAAGGC [AAGATGGAGTG G34T] | 0.00776
18 | GAGACCGCAACTGAAAAGTTGTTAAGAAATGTGGGTTGAATTTCTGCACGTAGAAGCAAAAGGC [AAGATGTGTGA] | 0.00241
19 | GAGACCGCAACTGAAAAGTTGTATAGAAATGGTGGGTTAATTTCTGCACGTAGAAGCAAAAGGC [TAGATGGTGTA T23A] | 0.00161
20 | GAGACCGCAACTGAAAAGTTGTTACAAAAGGAGGGTTGAATTTCTGCACGTAGAAGCAAAAGGC [ACAAGGAGTGA] | 0.00357
21 | GAGACCGCAACTGAAAAGTTGTTTCAAATGGTGGGTTGAATTTCTGCACGTAGAAGCAAAAGGC [TCAAGGTGTGA A29T] | 0.00119

Row | Variant | fraction ligated
22 | GAGACCGCAACTGAAAAGTTGTACAGAAATGGATGGTTGATTTCTGCACGTAGAAGCAAAAGGC [CAGATGGAGTG T23A G34T] | 0.0111
23 | GAGACCGCAACTGAAAAGTTGTTTCAAATGGATGGGTTAATTTCTGCACGTAGAAGCAAAAGGC [TCAAGGATGTA A29T] | 0.00204
24 | GAGACCGCAACTGAAAAGTTGTTTAGAAATGGTGGGTTGATTTCTGCACGTAGAAGCAAAAGGC [TAGATGGTGTG] | 0.0042
25 | GAGACCGCAACTGAAAAGTTGTTTAGAAATGGTGGGTTAATTTCTGCACGTAGAAGCAAAAGGC [TAGATGGTGTA] | 0.00141
26 | GAGACCGCAACTGAAAAGTTGTTTAGAAATGTGGGTTGAATTTCTGCACGTAGAAGCAAAAGGC [TAGATGTGTGA] | 0.00395
27 | GAGACCGCAACTGAAAAGTTGTATAGAAATGGTGGTTGAATTTCTGCACGTAGAAGCAAAAGGC [TAGATGGTTGA T23A] | 0.00325
28 | GAGACCGCAACTGAAAAGTTGTTAAGAAATGGGGGTTGAATTTCTGCACGTAGAAGCAAAAGGC [AAGATGGGTGA] | 0.00372
29 | GAGACCGCAACTGAAAAGTTGTATCAAATGGATGGGTTAATTTCTGCACGTAGAAGCAAAAGGC [TCAAGGATGTA T23A A29T] | 0.00242
30 | GAGACCGCAACTGAAAAGTTGTACAGAAATGGATGGGTTGTTTCTGCACGTAGAAGCAAAAGGC [CAGATGGAGTT T23A G34T T37G A40G] | 0.00303
31 | GAGACCGCAACTGAAAAGTTGTATAGAAATGGATGGTTGATTTCTGCACGTAGAAGCAAAAGGC [TAGATGGAGTG T23A G34T] | 0.00936
32 | GAGACCGCAACTGAAAAGTTGTTAAGAAATGGTGGTTGAATTTCTGCACGTAGAAGCAAAAGGC [AAGATGGTTGA] | 0.00185
33 | GAGACCGCAACTGAAAAGTTGTTACAAAAGATGGGTTGAATTTCTGCACGTAGAAGCAAAAGGC [ACAAGATGTGA] | 0.00207
34 | GAGACCGCAACTGAAAAGTTGTATCAAAAGGAGGGTTGAATTTCTGCACGTAGAAGCAAAAGGC [TCAAGGAGTGA T23A] | 0.00195
35 | GAGACCGCAACTGAAAAGTTGTTAAGAAATGGAGGTTGAATTTCTGCACGTAGAAGCAAAAGGC [AAGATGGATGA] | 0.00526
36 | GAGACCGCAACTGAAAAGTTGTACAGAAATGGTGGGTTAATTTCTGCACGTAGAAGCAAAAGGC [CAGATGGTGTA T23A] | 0.00242
37 | GAGACCGCAACTGAAAAGTTGTATCAAAAGATGGGTTGAATTTCTGCACGTAGAAGCAAAAGGC [TCAAGATGTGA T23A] | 0.0017
38 | GAGACCGCAACTGAAAAGTTGTTTCAAAAGGATGGGTTGATTTCTGCACGTAGAAGCAAAAGGC [TCAAGGATGTG] | 0.00569
39 | GAGACCGCAACTGAAAAGTTGTTTCAAAAGGATGGGTTAATTTCTGCACGTAGAAGCAAAAGGC [TCAAGGATGTA] | 0.0017
40 | GAGACCGCAACTGAAAAGTTGTATAGAAATGGAGGGTTGATTTCTGCACGTAGAAGCAAAAGGC [TAGATGGAGTG T23A] | 0.00424
41 | GAGACCGCAACTGAAAAGTTGTTACAAATGGATGGGTTAATTTCTGCACGTAGAAGCAAAAGGC [ACAAGGATGTA A29T] | 0.00548
42 | GAGACCGCAACTGAAAAGTTGTATCAAAAGGATGGGTTAATTTCTGCACGTAGAAGCAAAAGGC [TCAAGGATGTA T23A] | 0.000851
